Reference: patent publication US20060217891A1
Ends that are not written are not given here.

B1: (FLLP-1)4-MAP8 (four WEWT peptides bound to MAP-8) (peptide, part only)
chain: WEWT
modifications: also: tetramer: each copy bound to one of 4 branches of MAP-8, remaining four amino groups of MAP-8 protected
B2: Fas complementary peptide tetramer [(FRP-2)4-MAP] (peptide, part only)
chain: EPPMTFISIHTMCH
modifications: also: tetramer: each copy bound to one of four branches of a lysine polymer (MAP)

Molecular target: Fas (Receptor) on the Fas-expressing human ovarian cancer cell line NOS4 (human) (UniProt P25445)
Test: cell-based or functional assay

Chain of Fas (Receptor) on the Fas-expressing human ovarian cancer cell line NOS4 (human) (P25445 26-335): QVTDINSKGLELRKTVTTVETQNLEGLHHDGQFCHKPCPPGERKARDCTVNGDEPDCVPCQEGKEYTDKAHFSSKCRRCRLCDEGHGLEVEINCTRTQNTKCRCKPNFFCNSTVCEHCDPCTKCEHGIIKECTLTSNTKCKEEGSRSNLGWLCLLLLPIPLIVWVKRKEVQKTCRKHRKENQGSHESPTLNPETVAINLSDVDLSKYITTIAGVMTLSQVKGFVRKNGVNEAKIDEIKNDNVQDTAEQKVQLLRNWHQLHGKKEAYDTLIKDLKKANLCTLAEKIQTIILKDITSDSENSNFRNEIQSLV

Binder | Apoptosis induction Activity (%) of NOS4 cells at 0.01 µg/ml [%] | Apoptosis induction Activity (%) of NOS4 cells at 0.03 µg/ml [%] | Apoptosis induction Activity (%) of NOS4 cells at 0.1 µg/ml [%] | Apoptosis induction Activity (%) of NOS4 cells at 0.3 µg/ml [%] | Apoptosis induction Activity (%) of NOS4 cells at 1 µg/ml [%] | apoptosis induction potential relative to the monomer FRP-2 [times] | apoptosis of NOS4 cells, same method as Test Example 1, at 5 mg/ml as printed [%]
B1 | 7 | 15 | 48 | 67 | 78 |  | 
B2 |  |  |  |  |  | 30 | 50
